Test results as given in the supplement of paper PMC10126150.
± gives the standard deviation of the averaged measurements.

System: ATP
Assay: switch fluorescence ratio, 500 uM ATP over buffer (Cy3 cluster intensity, sum of 5 cycles each) (fold (ratio)); higher = stronger signal-on switching upon ATP binding; sequences stand for … in TCGTCGGCAGCGTCAGATGTGTATAAGAGACAGTTTTTTTTTTTTTTTTTTTTTTTTT…TC
Conditions: aptamer strand: ATP DNA aptamer (quencher-CACCTGGGGGAGTATTGCGGAGGAAGG + anchor), 100 nM annealed; ATP concentration: 500 uM
Method in brief: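 Per cluster, summed Cy3 intensity from the target cycles was divided by that from the buffer cycles to give the fluorescence ratio, then averaged per switch-domain sequence. Clusters outside 100-1000 RFU were excluded. The Cy3-labelled switching-strand clusters, on a modified Illumina MiSeq flow-cell, were annealed to 100 nM quencher-labelled ATP aptamer and imaged in selection buffer, then after 15 min with 500 uM ATP at 22 °C, for five cycles with NaOH stripping and re-annealing between them.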
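Further: ATP exposure 15 min at 22 °C before imaging.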

Sequence | switch fluorescence ratio
AATAGGAATT | 0.9708 ± 0.0059
AATAGGAGAG | 0.987 ± 0.0099
AATAGGCACA | 1.07 ± 0.0015
AATAGGGCTT | 0.978 ± 0.04
AATAGGTTGG | 0.994 ± 0.029
AATATAGATG | 0.9885 ± 0.007
AATATAGGT | 1.02 ± 0.033
AATATATACG | 1.0252 ± 0.00079
AATATATACT | 1.04 ± 0.027
AATATCTGAC | 1.18 ± 0.046
AATATGAG | 1.02 ± 0.018
AATATGCTCC | 1.14 ± 0.064
AATATGGCGT | 1.01 ± 0.029
AATATTCATT | 0.985 ± 0.069
AATATTCTAG | 0.994 ± 0.019
AATATTGATG | 1.02 ± 0.044
AATATTGCAC | 1.04 ± 0.021
AATATTGGAT | 1.01 ± 0.023
AATATTTCGC | 1.02 ± 0.018
AATATTTGAG | 0.998 ± 0.02
AATATTTGTG | 1.15 ± 0.23
AATCAGAAAG | 1.15 ± 0.24

Sequence | switch fluorescence ratio
AATCATCCTC | 1.06 ± 0.043
AATCATGGCG | 0.991 ± 0.07
AATCATGTAG | 1.01 ± 0.011
AATCATTAGC | 0.985 ± 0.049
AATCCCTGGG | 1.07 ± 0.033
AATCCGCGGA | 0.964 ± 0.013
AATCCTGGCG | 1.01 ± 0.032
AATCGCGGCC | 1.032 ± 0.0085
AATCGCGGTA | 1.05 ± 0.033
AATCGGGCGT | 0.982 ± 0.052
AATCGGGCTG | 0.962 ± 0.042
AATCGGGGGT | 1.002 ± 0.0097
AATCGTACAG | 1.07 ± 0.019
AATCGTGGTG | 0.982 ± 0.047
AATCGTGTAT | 0.983 ± 0.035
AATCGTTGCT | 0.952 ± 0.039
AATCTAACGT | 0.9937 ± 0.008
AATCTAGTGT | 0.996 ± 0.019
AATCTATATT | 1.01 ± 0.025
AATCTCGTAA | 1.02 ± 0.023
AATCTGAAGA | 0.9983 ± 0.0097
AATCTGGGGG | 1.01 ± 0.018

Sequence | switch fluorescence ratio
AATCTGTGTG | 0.963 ± 0.042
AATCTTCTAT | 1.01 ± 0.024
AATCTTGGTT | 0.959 ± 0.032
AATGAAAGGG | 0.988 ± 0.025
AATGAAGAAG | 1.17 ± 0.22
AATGAAGCTC | 0.966 ± 0.051
AATGAAGGGG | 0.987 ± 0.031
AATGAATGCA | 1.004 ± 0.0014
AATGAATTCG | 1 ± 0.031
AATGACTAAT | 1.01 ± 0.017
AATGACTATG | 0.976 ± 0.056
AATGAGGGCG | 0.9825 ± 0.0018
AATGATAAGC | 1.04 ± 0.028
AATGATTAGT | 0.998 ± 0.032
AATGATTGAA | 0.968 ± 0.023
AATGATTGGA | 1.02 ± 0.041
AATGCAGTGC | 1.26 ± 0.09
AATGCATCTA | 0.989 ± 0.025
AATGCATGGG | 0.989 ± 0.046
AATGCCCGGC | 1.02 ± 0.11
AATGCCGGCC | 1.08 ± 0.028
AATGCGGGGG | 1 ± 0.025

Sequence | switch fluorescence ratio
AATGCGTTCG | 0.99211 ± 0.00042
AATGCTCTTC | 0.973 ± 0.04
AATGCTTGGG | 1.0044 ± 8.7e-05
AATGGAAATT | 0.996 ± 0.063
AATGGCCGCG | 1.08 ± 0.11
AATGGCGGCA | 1.06 ± 0.078
AATGGCGGGA | 1.021 ± 0.0015
AATGGCGTAT | 1.02 ± 0.029
AATGGCTAGG | 1.01 ± 0.014
AATGGGAAGA | 0.9987 ± 0.0043
AATGGGATGT | 0.981 ± 0.017
AATGGGGATG | 0.998 ± 0.058
AATGGGGGCG | 0.9633 ± 0.0089
AATGGGGGCT | 1.02 ± 0.022
AATGGGGGGG | 0.998 ± 0.034
AATGGGGTAA | 0.995 ± 0.014
AATGGGGTCA | 0.991 ± 0.024
AATGGGTTGG | 0.9875 ± 0.0082
AATGGTCGGC | 0.996 ± 0.011
